Experimental data reported in paper PMC10279758.

Target: Arabidopsis thaliana Receptor-Like Protein 30, GFP-tagged (RLP30-GFP) (Arabidopsis thaliana) (UniProt Q9MA83)
Sequence of UniProt Q9MA83 (Q9MA83 31-786): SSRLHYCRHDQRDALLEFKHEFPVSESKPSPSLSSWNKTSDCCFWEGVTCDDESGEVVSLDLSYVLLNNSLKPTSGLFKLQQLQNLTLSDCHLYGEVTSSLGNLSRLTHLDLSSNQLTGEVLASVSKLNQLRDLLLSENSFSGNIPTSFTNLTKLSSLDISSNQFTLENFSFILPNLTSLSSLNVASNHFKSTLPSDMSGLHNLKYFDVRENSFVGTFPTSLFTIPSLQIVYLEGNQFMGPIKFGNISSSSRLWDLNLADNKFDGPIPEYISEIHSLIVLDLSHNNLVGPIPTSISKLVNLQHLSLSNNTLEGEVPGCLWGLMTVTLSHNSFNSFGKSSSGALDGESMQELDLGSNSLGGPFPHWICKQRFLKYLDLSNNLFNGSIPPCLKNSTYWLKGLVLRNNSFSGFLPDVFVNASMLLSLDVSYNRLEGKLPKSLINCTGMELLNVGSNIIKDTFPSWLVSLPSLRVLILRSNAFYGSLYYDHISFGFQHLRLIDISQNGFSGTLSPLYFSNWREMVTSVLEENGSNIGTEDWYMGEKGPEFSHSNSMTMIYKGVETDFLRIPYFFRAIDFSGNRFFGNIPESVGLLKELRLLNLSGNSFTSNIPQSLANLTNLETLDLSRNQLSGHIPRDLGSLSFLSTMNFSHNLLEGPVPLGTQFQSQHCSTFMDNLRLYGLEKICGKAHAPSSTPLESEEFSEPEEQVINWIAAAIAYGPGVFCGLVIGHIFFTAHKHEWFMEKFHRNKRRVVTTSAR

SMALL CYSTEINE-RICH PROTEIN FROM S. SCLEROTIORUM, myc-tagged (SCP^Ss-myc) (ligand)
ethylene production in Arabidopsis Col-0 plants, half-maximal induction (EC50); the protein applied was His-tagged SCP^Ss from P. pastoris, affinity purified via His-Trap columns: 26 nM
